# Test results from patent CN108840930A (SHENGYAN MEDICINE TECH WUHAN CO LTD, dated 2018).
# Target: 抗体-Fc融合蛋白scFv-3B5-Fc (anti-human CD19 scFv 3B5 fused to human IgG1 Fc) (human, UniProt P01857 99-330 = IgG part)
# Assay: concentration-gradient ELISA, Fc-CD19 coated at 100 ng/well, goat anti-human-HRP detection, nonlinear fit (b = KD)
binder,measurement,value
"人Fc-CD19重组蛋白 (recombinant human Fc-CD19, bought from Acrobiosystems) (Fc fusion, UniProt P15391 20-291, looked up, Bought reagent; the order here follows the printed name Fc-CD19; also called Fc-CD19重组抗原; 重组人CD19抗原; not shown: Fc part of the bought Fc-CD19 fusion) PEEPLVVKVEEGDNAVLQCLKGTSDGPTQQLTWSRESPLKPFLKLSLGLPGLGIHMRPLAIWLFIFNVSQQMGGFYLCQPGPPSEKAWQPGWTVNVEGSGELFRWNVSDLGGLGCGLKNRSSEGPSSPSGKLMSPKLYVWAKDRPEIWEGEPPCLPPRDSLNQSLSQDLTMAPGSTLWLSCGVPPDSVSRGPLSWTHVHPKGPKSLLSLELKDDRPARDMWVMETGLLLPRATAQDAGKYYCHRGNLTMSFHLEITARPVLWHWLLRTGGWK",Kd,0.475 nM
